Assay results from patent US20160251421A1 (AstraZeneca / MedImmune, published 2016).

T1: biotinylated recombinant human Angiopoietin-2 (R&D Systems, Inc. Cat. No. BT623) (human, UniProt O15123 19-496, limits assumed, biotinylated (sites not given))
T1 construct: Bought reagent; also called Ang-2; Ang2
T1 sequence (looked up): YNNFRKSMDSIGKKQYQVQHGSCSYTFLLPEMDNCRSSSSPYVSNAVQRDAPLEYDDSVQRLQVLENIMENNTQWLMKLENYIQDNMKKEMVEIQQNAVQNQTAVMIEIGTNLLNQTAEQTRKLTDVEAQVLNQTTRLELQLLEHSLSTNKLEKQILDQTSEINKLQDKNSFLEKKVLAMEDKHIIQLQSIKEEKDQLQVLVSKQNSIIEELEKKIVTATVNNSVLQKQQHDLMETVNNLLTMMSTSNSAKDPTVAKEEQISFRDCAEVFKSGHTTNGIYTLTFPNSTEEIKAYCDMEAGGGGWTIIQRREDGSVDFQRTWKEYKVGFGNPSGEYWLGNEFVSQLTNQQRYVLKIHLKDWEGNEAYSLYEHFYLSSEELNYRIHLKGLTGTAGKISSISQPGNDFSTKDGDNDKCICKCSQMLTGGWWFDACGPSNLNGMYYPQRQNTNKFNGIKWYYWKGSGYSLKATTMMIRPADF

B1: anti-Ang-2 monoclonal antibody 5.28.1 (antibody, V domains shown)
VH: EVQLVESGGIVVQPGGSLRLSCAASGFTFDDYTMHWVRQTPGKGLEWVSLISWDGGSTYYADSVKGRFTISRDNSKNSLYLQMNSLRTEDTALYYCAKDIDIAVAGTGFDHWGQGTLVTVSS
VL: EIVMTQSPATLSVSPGERATLSCRASQSVTSNLAWYQQKPGQAPRLLIYGALIRATGIPARFSGSGSGTEFTLTISSLQSEDFAVYYCQQYNNWPFTFGPGTKVDIKR
notes: Fully human IgG kappa from XenoMouse hybridoma (strains XMG2 and XMG4); IgG purified from hybridoma supernatant; also called mAb 5.28.1
B2: anti-Ang-2 monoclonal antibody 5.103.1 (antibody, V domains shown)
VH: QVQLVQSGAEVKKPGASVKVSCKASGYTFTGYYLYWVPQAPGQGLEWMGWISPNSGGTNYAQKFQGRVTMTRDTSISTAYMELSRLRSDDTAVYYCARDQVIAVAGPFDYWAQGTLVTVSS
VL: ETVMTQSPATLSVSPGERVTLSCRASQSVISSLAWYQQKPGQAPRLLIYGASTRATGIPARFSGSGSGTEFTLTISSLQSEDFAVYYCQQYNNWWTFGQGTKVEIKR
notes: Fully human IgG kappa from XenoMouse hybridoma (strains XMG2 and XMG4); IgG purified from hybridoma supernatant; also called mAb 5.103.1
B3: anti-Ang-2 monoclonal antibody 5.86.1 (antibody, V domains shown)
VH: QVQLVQSGAEVKKPGASVKVSCKASGYTFTGYHMYWVRQAPGQGLEWLGWINPNSGGTNYAQKFQGRVTMTRDTSISTAYMELSRLRSDDTAVYYCVRDQGIAAAGPFDYWCQGTLVTVSS
VL: DIRMTQSPSSLSASVGDRVTITCRASQRISTYLNWYQQKPGKAPKFLIYAASSLQSGVPSRFSGSGSGTDFTLTISSLQPEDFATYYCQQSYTTPFTFGPGTKVDIKR
notes: Fully human IgG kappa from XenoMouse hybridoma (strains XMG2 and XMG4); IgG purified from hybridoma supernatant; also called mAb 5.86.1
B4: anti-Angiopoietin-2 monoclonal antibody 3.19.3 (antibody, V domains shown)
VH: QVQLVESGGGVVQPGRSLRLSCAASGFTFTNYGMHWGRQAPGKGLEWVAVISHDGNNKYYVDSVKGRFTISRDNSKNTLYLQMNSLRAEDTAVYYCAREGIDFWSGLNWFDPWGQGTLVTVSS
VL: EIVLTQSPGTLSLSPGERATLSCRASQSITGSYLAWYQQKPGQAPRLLICGASSWATGIPDRFSGSGSGTDFTLTISRLEPEDFAVYYCQQYSSSPITFGQGTRLEIKR
notes: Fully human IgG kappa from XenoMouse hybridoma (strains XMG2 and XMG4); IgG purified from hybridoma supernatant
B5: anti-Ang-2 monoclonal antibody 5.88.3 (antibody, V domains shown)
VH: EVQMVESGGGLVQPGGSLRLSCAASGFTLRSYWMSWVRQAPGKGLEWVANIKEDGSEKYHVDSVKGRFTISRDNAENSLFLQMSSLRAEDTAVYYCARDMEASAGLFDYWGQGTLVTVSS
VL: EIVMTQSPATLSVSPGERAILSCRASQSISSNLAWYQQKPGQAPRLLIYGASTRATGIPARFSGSGSGTEFTLTISSLQSEDFAVYYCQQYNYWWTFGQGTKVEIKR
notes: Fully human IgG kappa from XenoMouse hybridoma (strains XMG2 and XMG4); IgG purified from hybridoma supernatant; also called mAb 5.88.3
B6: anti-Ang-2 monoclonal antibody 5.101.1 (antibody, V domains shown)
VH: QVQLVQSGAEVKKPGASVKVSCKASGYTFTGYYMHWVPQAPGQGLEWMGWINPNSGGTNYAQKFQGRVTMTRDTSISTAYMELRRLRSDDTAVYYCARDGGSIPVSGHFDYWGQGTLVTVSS
VL: EIVMTQSPATLSVSPGERATLSCRASQSLISNLAWYQQKPGQAPRLLIFGASTRATGIPARFSGSGSGTEFTLTISSLQSEDFAVYYCHQYNNWWTFGQGTKVEIKR
notes: Fully human IgG kappa from XenoMouse hybridoma (strains XMG2 and XMG4); IgG purified from hybridoma supernatant; also called mAb 5.101.1
B7: anti-Ang-2 monoclonal antibody 3.31.2 (antibody, V domains shown)
VH: EVQLVESGGGLVQPGGSLRLSCAASGFTFSSYWMSWVRQAPGKGLEWVANIKQDGSDKYYVDSVKGRFTISRDNAKNSLYLRMNSLRAEDTAVFYCARDMGSGWFDYWGQGTLVTVSS
VL: EVVMTQSPATLSVSPGERATLSCRASQSVGSNLAWYQQKPGQAPRLLIYGASTRATGIPARFSGSGSGTEFTLTISSLQSEDFAVYCCQQYNHWWTFGQGTKVEIKR
notes: Fully human IgG kappa from XenoMouse hybridoma (strains XMG2 and XMG4); IgG purified from hybridoma supernatant; also called mAb 3.31.2
B8: anti-Ang-2 monoclonal antibody 3.3.2 (antibody, V domains shown)
VH: EVQLVESGGGLVQPGGSLRLSCAVSGFTFSSYWMSWVRQAPGKGLEWVANIKQDGSEKYYVDSVKGRFTISRDNAKNSLYLQMNSLRAEDTAVYYCARDQGIAVAGPFDYWGQGTLVTVSS
VL: EIVMTQSPATLSVSPGERATLSCRASQTVSSDLAWYQQKPGQAPRLLIYGASIRATGIPARFSGSGSGTEFTLTISSLQSEDFAVYSCQQYYNWWTFGQGTKVEIKR
notes: Fully human IgG kappa from XenoMouse hybridoma (strains XMG2 and XMG4); IgG purified from hybridoma supernatant; also called mAb 3.3.2

Molecular target: T1, biotinylated recombinant human …
Assay: competitive binding ELISA: biotinylated Angiopoietin-2 on plate-coated Tie-2/Fc, purified mAb

Binder	Efficacy (ratio of bound Angiopoietin-2 with mAb (30 µg/ml) versus without mAb) [ratio]
B1	0.389
B2	0.232
B3	0.384
B4	0.395
B5	0.403
B6	0.364
B7	0.375
B8	0.388
